Assay results published in the supplement of paper PMC9170038.

Legend:
MS2 coat protein [1] = experiment: apparent KD of MS2 coat protein; higher = weaker reporter binding; settings: Eterna round: R101
Method: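 RNA-MaP: designed FMN/MS2 RNA switches (84 nt design region) are transcribed on-chip within common flanks and titrated with SNAP-549-labelled MS2 coat protein (about 1-3000 nM) in 100 mM Tris pH 7.5, 80 mM KCl, 4 mM MgCl2, without or with 200 uM FMN. Median apparent KD per design; activation ratio = KD,OFF / KD,ON.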

MS2 coat protein [2] = experiment: apparent KD of MS2 coat protein, switch ON state; designed switch direction (-1 OFF switch, 1 ON switch): 1; higher = weaker reporter binding; settings: FMN input: 0 or 200 uM; Eterna round: R93 (includes R88 designs)
Procedure, shortened: (§1)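 Apparent KD is reported per design as the median of normalised binding-curve fits across its clusters. The RNA switches were made by on-chip transcription from Illumina sequencing clusters. SNAP-549-labelled MS2 coat protein was then added in twofold steps (0.7 or 1.5 nM to 3 µM; 0.8–1.5 h to 10–20 min per step) in 100 mM Tris-HCl pH 7.5, 80 mM KCl, 4 mM MgCl2, without or with constant ligand.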

MS2 coat protein [3] = experiment: apparent KD of MS2 coat protein, switch OFF state (with FMN for OFF switches, without FMN for ON switches); designed switch direction (-1 OFF switch, 1 ON switch): 1; higher = weaker reporter binding; settings: FMN input: 0 or 200 uM; Eterna round: R93 (includes R88 designs)
Procedure, shortened: as §1

Sequence	apparent KD of MS2 coat protein (MS2 coat protein [1]; input ligand: FMN 200 uM)	apparent KD of MS2 coat protein (MS2 coat protein [1]; input ligand: none)	apparent KD of MS2 coat protein (MS2 coat protein [2])	apparent KD of MS2 coat protein (MS2 coat protein [3])
UCAGUAGAGUCAGGAUAUACAAAAGGCGAUCCAUACAUGAGGAUCACCCAUGUAGAAGGGACUCUACUGUAAGUCGGAAACGAC [#StaticStemDeletion - Eli x2 4.003] (puzzle (switch architecture): Small Loop Exclusion NG 1)	11.6 nM	165 nM	–	–
AAGUACAAGCAGAAGGCACAUGAGGAUCACCCAUGUCGGGCGUCCUGUAAGUGAGGAUAUGCUAAGUGACGGCCGCCUUGGCGG [Adienare] (puzzle (switch architecture): Inverted Small Loop Exclusion NG 1)	22.6 nM	383 nM	–	–
CUUACUUUGUAGAAGGGUGACAUGAGGAUCACCCAUGUGCGUCGCCUGGAAGACCAGGGUACGCCACAGGAUAUACAAAGUAAG [Gesoesla] (puzzle (switch architecture): Inverted Same State NG 2)	113 nM	119 nM	–	–
CCUGCACCUCAAGGAUAUCCAGUCGUUUCGACUGGAGAAGGUGAGGAUCACCCAUCUAGCCUGACGUUUGUCAGGCAUGCAGGU [#AddUracilToBrourdLoops 5 - Jieux - Exclusion NG1] (puzzle (switch architecture): Exclusion NG 1)	929 nM	398 nM	–	–
GGGUACAUCGGAGGAUAUCAUGUAAAUACAUGAGGAUCACCCAUGUCGAUGGAGACAUCGGAGAUUGAGAAGGCCGAUGUACCG (puzzle (switch architecture): Same State NG 2)	8.42 nM	159 nM	–	–
AAUAAUCUUUAAGGAUAUGACUCCGAAACGGAGUCAGAAGGUGAGGAUCACCCACCUAGCUCAGGGUCGAAAGACCCUGAGCAA [#SharedSequence - ExNG1-9] (puzzle (switch architecture): Exclusion NG 1)	10.6 nM	9.5 nM	–	–
GUUGGAUUUCAGAAGGGCUCCAGCAAAGCUGGAGCAGGAUAUGAGGAUCACCCAUAUCAAUCUCCAGAAUUGAUAUGAAUCAAU [#SharedSequence - IExNG1: 9-1] (puzzle (switch architecture): Inverted Exclusion NG 1)	317 nM	29.2 nM	–	–
AAAUGAUAUCAGAAGGCGUGGACGAAACGUCCACGAGGAUAUGAGGAUCACCCAUAUCAGGUCAGCCUGCAAAGCAGGCUGACC [#SharedSequence - IExNG1: 7-2] (puzzle (switch architecture): Inverted Exclusion NG 1)	126 nM	15.6 nM	–	–
GGAAGGAAGAGAGAGGAUAUCCAAAGGAAAACAUGAGGAUCACCCAUGUAAAAGGUAGGAAAUUGGGAGAAGGCUCAAAAGAGAG [salish99-ss2-036]	–	–	18.6 nM	14 nM
AACUAACAUGAGGAUCACCCAUGUUGCAGCGGUUGAGGAUAUGUGGGUGAAAAUAGCAUGGCAGAAGGCGAGUGUA [SameState1 Malc#25]	–	–	68.8 nM	52.2 nM
AUAAAACAUGAGGAUCACCCAUGUAGACAUAUGGGAGGAUAUACUAGAUCGAAAGAUCUAGUAGAAGGUCUUUAAA [JL Mod of Eli 9]	–	–	297 nM	257 nM
CGGAGACAUGAGGAUCACCCAUGUGAGAAGAGGCGAGGAUAUCGAAAGAAAGAAGAGAAACGAGAAGGCGCGAGGG [salish99-SS1-075]	–	–	18.3 nM	27.7 nM
AAAUAAAUGACUGAGGAUAUAUCGAUGAAUACAUGAGGAUCACCCAUGUGAUAAUAAAAAGGGUGGUAGAAGGUAGUCAACAAAC [Mod 13 of Pariah 4 by Hyphema in Round 1]	–	–	95.9 nM	71.9 nM
AAAAAACAUGAGGAUCACCCAUGUAAUACAACAUCAGGAUAUUGGUUUUACUAUGUAUUACAAGAAGGGAUGAAAA [Same State 1.3b (Same State 1 - Omei 2 )]	–	–	181 nM	92.4 nM
AGGAGACAUGAGGAUCACCCAUGUGCACGUGGAGGAGGAUAUGCUAGUAGAAGAUAGAAUGCAGAAGGCCUAAGAA [JR_SameState1_Sub3]	–	–	42.8 nM	35.3 nM
GAAAAACAUGAGGAUCACCCAUGUGAGAAUAUGGGAGGAUAUACGAGGACGAGAGUCAAGGUAGAAGGCCUAAAAG [Garnet 75]	–	–	40.5 nM	549 nM
AUAUGAUCAUGUGAGGAUAUCCAUAAUAAAACAUGAGGAUCACCCAUGUAUAGAUACUAAUAAUGGGAGAAGGCACAUGAUCAAU [SS 2 M43]	–	–	19.9 nM	24 nM
AAUAUAUUAUUUAAGGAUAUCAUAGGAAACACAUGAGGAUCACCCAUGUGGGAAACUUGGUCGGGUGAGAAGGUGGAUAAUAUAU [Samwise Clockwise 36 - Jieux - Same State 2]	–	–	17.4 nM	24.6 nM
AACAUACAUGAGGAUCACCCAUGUUCCGGCAGGGCAGGAUAUCCAUCGAAAGUGUUAUAAGGAGAAGGGCCAUAAA [JR_SS001_Sub013]	–	–	31.7 nM	93.3 nM

Sequence	apparent KD of MS2 coat protein (MS2 coat protein [1]; input ligand: FMN 200 uM)	apparent KD of MS2 coat protein (MS2 coat protein [1]; input ligand: none)	apparent KD of MS2 coat protein (MS2 coat protein [2])	apparent KD of MS2 coat protein (MS2 coat protein [3])
GAAAAACAUGAGGAUCACCCAUGUAGAAAUAUGGGAGGAUAUACAAAGACGAAAGUCAAAGUAGAAGGCCUAAAAG [Mat - Mod of Eli]	–	–	23.9 nM	69.3 nM
AAAAAAAAAGUAGAGGAUAUCCGAGUGGUAACAUGAGGAUCACCCAUGUGAAGAAAGGAACAUGAGGAGAAGGCUACAAAAAAAAA [Normal (18/17)]	–	–	11.9 nM	30.4 nM
AAAAAAAAAACUCAGGAUAUAGAUCGUUGAACAUGAGGAUCACCCAUGUAGUGAAAAGCGAAAAACUAGAAGGGAGGAAAAAAAAA [SameState2-02]	–	–	13.3 nM	28.7 nM
AGGAAACAUGAGGAUCACCCAUGUAAAAAAUAGGGAGGAUAUGGAAACACGAAAGUGAAACCAGAAGGCUCAAAAA [77%, Mat - Mod of Eli, 23]	–	–	13.8 nM	18.2 nM
GAAAAACAUGAGGAUCACCCAUGUGGAAAUAUGGAAGGAUAUACAAAGACGGAAGUCAAAGUAGAAGGUCUAAAAG [Mat - Same State 1 - Eli mod - D19]	–	–	23.6 nM	29.4 nM
AACAAUCUAUCUGAGGAUAUCAUGUCAAAGACAUGAGGAUCACCCAUGUGCAGGAAAACUGCAUAUGAGAAGGCAGAUAGAUUGA [SS2 :P - 599]	–	–	217 nM	130 nM
AAAAUAUAAAGAGAGGAUAUCCAAAGAACCACAUGAGGAUCACCCAUGUAAAGAAAGAAUAAGUGGGAGAAGGCUCAAAUAAUAA [Designing denovo 24]	–	–	27.5 nM	99.8 nM
AGGAAACAUGAGGAUCACCCAUGUAAAAAUAUGGGAGGAUAUACGAAGACGAAAGUAAAAGUAGAAGGCCUAAAAG [Garnet 15]	–	–	31.8 nM	108 nM
AAUCCAAAUAGUUAGGAUAUGGGAAUAAAAACAUGAGGAUCACCCAUGUAAUUGAAACAAGUUAACCAGAAGGGACAGGGUGAAA [JR_SS002_Sub210]	–	–	67.5 nM	16.6 nM
AUAGAACAUGAGGAUCACCCAUGUAAAAAAGCAUGAGGAUAUAUAAGUAAAUAAAAUAAGAUAGAAGGCAUGAUAA [JR_SS001_Sub1701]	–	–	52 nM	91.4 nM
UCGUCCUCGUGCUAGGAUAUCCAUCGUAAAACAUGAGGAUCACCCAUGUAGAAAUGCGCCGACGAGGAGAAGGAGCGAUGUGGAU [Lazabima]	–	–	14.5 nM	18.5 nM
GGGAGGAAGAGAGAGGAUAUCCAAAGGAAAACAUGAGGAUCACCCAUGUAAAAGGUAGGAAAUUGGGAGAAGGCUCAAGAGACGG [salish99-ss2-053]	–	–	26.7 nM	34.2 nM
CAGCGCUGUCGAGAGGAUAUGCGGUGAUGGACAUGAGGAUCACCCAUGUAAGCGAUAGCAUUACGGCAGAAGGCUCUGCAGCUGC [Riaranzaes]	–	–	18.7 nM	69.6 nM
GAUCCAACUAGUCAGGAUAUCAGGCGUAAGACAUGAGGAUCACCCAUGUCCUAAGAACAAGUAACUGAGAAGGGACAGGGCGACC [JR_SS002_Sub412]	–	–	70.5 nM	74.3 nM
ACAAAUAAAAGAGAGGAUAUCCAAAAGAAAACAUGAGGAUCACCCAUGUGAAAGAAAAUAAAAUGGGAGAAGGCUCAGAAUAAUA [Topaz 30]	–	–	16.4 nM	83.2 nM
CGGAAGGAGAGAGAGGAUAUCCAAAGGAAAACAUGAGGAUCACCCAUGUAGAAGGUAGGAAAUUGGGAGAAGGCUCAACAGAGAG [salish99-ss2-130]	–	–	19.1 nM	33.4 nM
UAUCCGGCAGUGUAGGAUAUGUUGUAGUAAACAUGAGGAUCACCCAUGUGGAUUAUAUAAGAUUCACAGAAGGGCACUGCAUUGC [Laonis]	–	–	265 nM	226 nM
AAAAGACAUGAGGAUCACCCAUGUCAAGACGUAGGAGGAUAUGUCUUGAAAAAAGACUUGACAGAAGGCCUGUGUC [SS1 - 55]	–	–	14.9 nM	18.1 nM
CGUGAACAUGAGGAUCACCCAUGUAGCGGGAGACAAGGAUAUGGGAGGCGAAAUCGCGGAUCAGAAGGUGUAAGCG [Zace]	–	–	16.4 nM	16.5 nM
